2 substances from PMC8616027 can be followed below.

Bounds are passed on as bounds.

In data set [1] the test system is HU (HU-1/HU-2, hupA + hupB co-expressed) (Escherichia coli). In words: EMSA. The note with it: 10 min at 23 C, then 0.8% agarose gel electrophoresis, bound [3H]HU counted in gel slices; binding buffer composition, salt and pH not in the material …; scale: HU dimers bound per plasmid at saturation.
Data set [2] has the same test system. Kind of data set: competition. Conditions: 10 min at 23 C, then 0.8% agarose gel electrophoresis, bound [3H]HU counted in gel slices; binding buffer composition, salt and pH not in the material ….

Turning to linear pRLM4, the binding signal in data set [1] was found to be 1000.

For the substance “negatively supercoiled pRLM4 (sigma -0.06)”, in data set [2], the binding signal (fold affinity over linear DNA) was found to be 20, the binding signal (fold affinity over relaxed DNA) was over 10 and the binding signal (fold affinity over relaxed pRLM4) came out at 2. Besides, the binding signal in data set [1] is 1000.
